Assays:
Test in all cases: flow cytometry, transfected cells
human CD33 I47N = human CD33 I47N (human, UniProt P20138 18-364)
human CD33 F44S = human CD33 F44S (human, UniProt P20138 18-364)
human CD33 F44T = human CD33 F44T (human, UniProt P20138 18-364)
human CD33 Y49D = human CD33 Y49D (human, UniProt P20138 18-364)
human CD33 F44D = human CD33 F44D (human, UniProt P20138 18-364)
human CD33 Y49G = human CD33 Y49G (human, UniProt P20138 18-364)
human CD33 I47F = human CD33 I47F (human, UniProt P20138 18-364)
human CD33 F44V = human CD33 F44V (human, UniProt P20138 18-364)
human CD33 I47L = human CD33 I47L (human, UniProt P20138 18-364)
human CD33 F44Q = human CD33 F44Q (human, UniProt P20138 18-364)
human CD33 K52D = human CD33 K52D (human, UniProt P20138 18-364)
human CD33 I47S = human CD33 I47S (human, UniProt P20138 18-364)
human CD33 I47E = human CD33 I47E (human, UniProt P20138 18-364)
human CD33 Y49C = human CD33 Y49C (human, UniProt P20138 18-364)
human CD33 R122I = human CD33 R122I (human, UniProt P20138 18-364)
human CD33 I47W = human CD33 I47W (human, UniProt P20138 18-364)
human CD33 F44H = human CD33 F44H (human, UniProt P20138 18-364)
human CD33 R122F = human CD33 R122F (human, UniProt P20138 18-364)
human CD33 I47R = human CD33 I47R (human, UniProt P20138 18-364)
human CD33 F44I = human CD33 F44I (human, UniProt P20138 18-364)
human CD33 F44E = human CD33 F44E (human, UniProt P20138 18-364)
human CD33 R122E = human CD33 R122E (human, UniProt P20138 18-364)
human CD33 R122S = human CD33 R122S (human, UniProt P20138 18-364)
human CD33 F44P = human CD33 F44P (human, UniProt P20138 18-364)
human CD33 I47Q = human CD33 I47Q (human, UniProt P20138 18-364)
human CD33 I47P = human CD33 I47P (human, UniProt P20138 18-364)
human CD33 D51K = human CD33 D51K (human, UniProt P20138 18-364)
human CD33 R122T = human CD33 R122T (human, UniProt P20138 18-364)
human CD33 I47G = human CD33 I47G (human, UniProt P20138 18-364)
human CD33 I47Y = human CD33 I47Y (human, UniProt P20138 18-364)
human CD33 I47T = human CD33 I47T (human, UniProt P20138 18-364)
human CD33 F44L = human CD33 F44L (human, UniProt P20138 18-364)
human CD33 Y49P = human CD33 Y49P (human, UniProt P20138 18-364)
Sequence of human CD33 Y49P (P20138 18-364 Y49P limits assumed): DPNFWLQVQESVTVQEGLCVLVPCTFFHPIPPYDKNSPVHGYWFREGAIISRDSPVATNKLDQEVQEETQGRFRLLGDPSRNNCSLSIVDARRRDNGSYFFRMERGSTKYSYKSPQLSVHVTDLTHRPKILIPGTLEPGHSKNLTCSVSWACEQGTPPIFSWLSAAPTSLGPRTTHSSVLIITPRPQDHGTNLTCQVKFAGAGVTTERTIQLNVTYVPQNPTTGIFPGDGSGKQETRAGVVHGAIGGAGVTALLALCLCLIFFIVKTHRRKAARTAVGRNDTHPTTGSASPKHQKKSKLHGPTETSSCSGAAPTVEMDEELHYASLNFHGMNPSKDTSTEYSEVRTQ

Sequence of human CD33 R122S (P20138 18-364 R122S limits assumed): as the sequence (P20138 18-364 Y49P limits assumed) above, with P32Y, R105S counted along it
Sequence of human CD33 Y49G (P20138 18-364 Y49G limits assumed): as the sequence (P20138 18-364 Y49P limits assumed) above, with P32G counted along it
Sequence of human CD33 F44S (P20138 18-364 F44S limits assumed): as the sequence (P20138 18-364 Y49P limits assumed) above, with F27S, P32Y counted along it
Sequence of human CD33 F44T (P20138 18-364 F44T limits assumed): as the sequence (P20138 18-364 Y49P limits assumed) above, with F27T, P32Y counted along it
Sequence of human CD33 Y49D (P20138 18-364 Y49D limits assumed): as the sequence (P20138 18-364 Y49P limits assumed) above, with P32D counted along it
Sequence of human CD33 I47Y (P20138 18-364 I47Y limits assumed): as the sequence (P20138 18-364 Y49P limits assumed) above, with I30Y, P32Y counted along it
Sequence of human CD33 I47F (P20138 18-364 I47F limits assumed): as the sequence (P20138 18-364 Y49P limits assumed) above, with I30F, P32Y counted along it
Sequence of human CD33 I47T (P20138 18-364 I47T limits assumed): as the sequence (P20138 18-364 Y49P limits assumed) above, with I30T, P32Y counted along it
Sequence of human CD33 I47L (P20138 18-364 I47L limits assumed): as the sequence (P20138 18-364 Y49P limits assumed) above, with I30L, P32Y counted along it
Sequence of human CD33 I47E (P20138 18-364 I47E limits assumed): as the sequence (P20138 18-364 Y49P limits assumed) above, with I30E, P32Y counted along it
Sequence of human CD33 I47N (P20138 18-364 I47N limits assumed): as the sequence (P20138 18-364 Y49P limits assumed) above, with I30N, P32Y counted along it
Sequence of human CD33 R122E (P20138 18-364 R122E limits assumed): as the sequence (P20138 18-364 Y49P limits assumed) above, with P32Y, R105E counted along it
Sequence of human CD33 F44H (P20138 18-364 F44H limits assumed): as the sequence (P20138 18-364 Y49P limits assumed) above, with F27H, P32Y counted along it
Sequence of human CD33 R122T (P20138 18-364 R122T limits assumed): as the sequence (P20138 18-364 Y49P limits assumed) above, with P32Y, R105T counted along it
Sequence of human CD33 F44E (P20138 18-364 F44E limits assumed): as the sequence (P20138 18-364 Y49P limits assumed) above, with F27E, P32Y counted along it
Sequence of human CD33 I47Q (P20138 18-364 I47Q limits assumed): as the sequence (P20138 18-364 Y49P limits assumed) above, with I30Q, P32Y counted along it
Sequence of human CD33 F44D (P20138 18-364 F44D limits assumed): as the sequence (P20138 18-364 Y49P limits assumed) above, with F27D, P32Y counted along it
Sequence of human CD33 K52D (P20138 18-364 K52D limits assumed): as the sequence (P20138 18-364 Y49P limits assumed) above, with P32Y, K35D counted along it
Sequence of human CD33 F44L (P20138 18-364 F44L limits assumed): as the sequence (P20138 18-364 Y49P limits assumed) above, with F27L, P32Y counted along it
Sequence of human CD33 I47S (P20138 18-364 I47S limits assumed): as the sequence (P20138 18-364 Y49P limits assumed) above, with I30S, P32Y counted along it
Sequence of human CD33 F44I (P20138 18-364 F44I limits assumed): as the sequence (P20138 18-364 Y49P limits assumed) above, with F27I, P32Y counted along it
Sequence of human CD33 I47G (P20138 18-364 I47G limits assumed): as the sequence (P20138 18-364 Y49P limits assumed) above, with I30G, P32Y counted along it
Sequence of human CD33 I47W (P20138 18-364 I47W limits assumed): as the sequence (P20138 18-364 Y49P limits assumed) above, with I30W, P32Y counted along it
Sequence of human CD33 D51K (P20138 18-364 D51K limits assumed): as the sequence (P20138 18-364 Y49P limits assumed) above, with P32Y, D34K counted along it
Sequence of human CD33 F44P (P20138 18-364 F44P limits assumed): as the sequence (P20138 18-364 Y49P limits assumed) above, with F27P, P32Y counted along it
Sequence of human CD33 I47P (P20138 18-364 I47P limits assumed): as the sequence (P20138 18-364 Y49P limits assumed) above, with I30P, P32Y counted along it
Sequence of human CD33 R122F (P20138 18-364 R122F limits assumed): as the sequence (P20138 18-364 Y49P limits assumed) above, with P32Y, R105F counted along it
Sequence of human CD33 R122I (P20138 18-364 R122I limits assumed): as the sequence (P20138 18-364 Y49P limits assumed) above, with P32Y, R105I counted along it
Sequence of human CD33 Y49C (P20138 18-364 Y49C limits assumed): as the sequence (P20138 18-364 Y49P limits assumed) above, with P32C counted along it
Sequence of human CD33 I47R (P20138 18-364 I47R limits assumed): as the sequence (P20138 18-364 Y49P limits assumed) above, with I30R, P32Y counted along it
Sequence of human CD33 F44V (P20138 18-364 F44V limits assumed): as the sequence (P20138 18-364 Y49P limits assumed) above, with F27V, P32Y counted along it
Sequence of human CD33 F44Q (P20138 18-364 F44Q limits assumed): as the sequence (P20138 18-364 Y49P limits assumed) above, with F27Q, P32Y counted along it

binding result (human CD33 I47N): no binding (tested: below 20%)
binding result (human CD33 F44S): no binding (tested: below 20%)
binding result (human CD33 F44T): no binding (tested: below 20%)
binding result (human CD33 Y49D): no binding (tested: below 20%)
binding result (human CD33 F44D): no binding (tested: below 20%)
binding result (human CD33 Y49G): no binding (tested: below 20%)
binding result (human CD33 I47F): no binding (tested: below 20%)
binding result (human CD33 F44V): no binding (tested: below 20%)
binding result (human CD33 I47L): no binding (tested: below 20%)
binding result (human CD33 F44Q): no binding (tested: below 20%)
binding result (human CD33 K52D): no binding (tested: below 20%)
binding result (human CD33 I47S): no binding (tested: below 20%)
binding result (human CD33 I47E): no binding (tested: below 20%)
binding result (human CD33 Y49C): no binding (tested: below 20%)
binding result (human CD33 R122I): no binding (tested: below 20%)
binding result (human CD33 I47W): no binding (tested: below 20%)
binding result (human CD33 F44H): no binding (tested: below 20%)
binding result (human CD33 R122F): no binding (tested: below 20%)
binding result (human CD33 I47R): no binding (tested: below 20%)
binding result (human CD33 F44I): no binding (tested: below 20%)
binding result (human CD33 F44E): no binding (tested: below 20%)
binding result (human CD33 R122E): no binding (tested: below 20%)
binding result (human CD33 R122S): no binding (tested: below 20%)
binding result (human CD33 F44P): no binding (tested: below 20%)
binding result (human CD33 I47Q): no binding (tested: below 20%)
binding result (human CD33 I47P): no binding (tested: below 20%)
binding result (human CD33 D51K): no binding (tested: below 20%)
binding result (human CD33 R122T): no binding (tested: below 20%)
binding result (human CD33 I47G): no binding (tested: below 20%)
binding result (human CD33 I47Y): no binding (tested: below 20%)
binding result (human CD33 I47T): no binding (tested: below 20%)
binding result (human CD33 F44L): no binding (tested: below 20%)
binding result (human CD33 Y49P): no binding (tested: below 20%)
B1: Refmab #2 (antibody, human IgG1, V domains shown)
VH: QVQLVQSGAEVKKPGSSVKVSCKASGGTFSDYAISWVRQAPGQGLEWMGRIIPILGVADYAQKFQGRVTITADKSTRTAYMELSSLRSEDTAVYYCARNWADAFDIWGQGTMVTVSS
VL: DIQLTQSPSSLSASVGDRVTITCRASQGISSVLAWYQQKPGKAPKLLIYDASSLESGVPSRFSGSGSGTDFTLTISSLQPEDFATYYCQQFDSSITFGQGTKLEIK

Source: patent publication US20260242735A1 (UNIVERSIT T BASEL, published 2026)
